For one substance, Heteromultimer (%) results are on record in patent publication US20260217835A1.

The target of this experiment is IgG4 Fc fragment SEQ ID NO: 102, no modification (Homo sapiens (Human)) [IgG part: P01861]. The experiment can be described thus: SEC peak area ratio; coexpression of full-length heavy chain, light chain and Fc fragment.
Sequence of IgG4 Fc fragment SEQ ID NO: 102, no modification (Homo sapiens (Human)) [IgG part: P01861] (P01861 other isoform, or with tags, fused parts or gaps limits assumed): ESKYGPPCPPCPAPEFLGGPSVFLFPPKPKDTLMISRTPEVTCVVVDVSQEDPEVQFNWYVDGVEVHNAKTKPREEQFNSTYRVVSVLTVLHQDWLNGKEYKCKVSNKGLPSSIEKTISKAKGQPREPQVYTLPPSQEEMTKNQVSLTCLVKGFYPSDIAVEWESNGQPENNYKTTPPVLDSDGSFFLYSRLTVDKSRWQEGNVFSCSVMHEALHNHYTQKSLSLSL

For the substance “IgG4 full-length heavy chain SEQ ID NO: 110 with Q347E/S354Y/T366Y/Y407T, expressed with light chain SEQ ID NO: 61 (antibody)”, the Heteromultimer (%) is 4.6%.
